Data from patent US11510990B2, “Conjugates of fusion proteins of GLP-1 and FGF21” (BEIJING QL BIOPHARMACEUTICAL CO., LTD., priority 2020, dated 2022).
Numbering of substitutions follows the chain as printed.

Experiments:
[1] = Body weight reduction in C57BL/6 mice, daily subcutaneous dosing; format: in vivo; details: for Body weight reduction at 30 nmol/kg (% reduction compared to vehicle)(Day11): male C57BL/6 mice, 30 nmol/kg subcutaneously everyday, Day 11
Method: FIGS. 1A-1F show in vivo activities of fusion protein conjugates. […] Body weight was measured daily. […] Compared to Vehicle control: ***, p<0.001. All data are expressed as mean values and standard error (SEM).
10 week old male C57BL/6 mice were injected everyday subcutaneously with 30 nmol/kg exemplary fusion protein conjugates for 10 or 14 days (n=5). Body weight was daily monitored for each individual animal. Day 1 and Day 10 (or Day 14) are first day and last day of molecule dosage. % BW loss=100*(BW on Day n-BW on Day 1)/(BW on Day 1). Data are indicated as mean values and standard error (SEM) or pooled values. Statistical analysis was performed by One-way ANOVA. Body weight reduction on Day 11 in Table 5 is calculated by −1*(% BW loss−% BW loss of vehicle group).

[2] = Pharmacokinetic measurement in C57BL/6 mice, single subcutaneous dose, plasma ELISA; format: in vivo; details: for AUClast / Cmax / Terminal t1/2 / Tmax: single subcutaneous dose 30 nmol/kg, plasma
Method: Each fusion protein conjugate was injected subcutaneously into C57BL/6 mice (n=3/group) once and plasma samples were collected at designed timepoints and analyzed by ELISA method. Plasma concentrations are indicated as mean values and standard error (SEM).
6-8 week old male C57BL/6 mice were administrated in a single subcutaneous dose of 30 nmol/kg of the exemplary fusion protein conjugates (Compounds 4, 9, 10, 19, 63) or the non-acylated fusion protein (i.e., Compound 3, which has the amino acid sequence identical to Compound 2 but without any conjugation) (n=3/group). Plasma samples were collected pre-dose (−5 min), 0.5 hr, 1 hr, 2 hr, 4 hr, 6 hr, 8 hr, 12 hr and 24 hr hours after the injection. For Compound 3, plasma collection timepoints were −5 min, 0.25 h, 0.5 h, 1 h, 2 h, 4 h and 6 h. The concentrations of the fusion protein conjugates or the non-acylated fusion protein in the plasma were measured by an ELISA assay which has immunoreactivities towards both C-terminal FGF21 and intact N-terminal of GLP-1. Based on the graph showing plasma concentration of each protein versus time after subcutaneous injection, the pharmacokinetic parameters were calculated by WinNonlin.
Pharmacokinetic data were analyzed by WinNonlin software. Tmax, Cmax, T1/2, AUC and MRT were calculated for each molecule.

[3] = Efficacy study in DIO mice: body weight, fasting glucose, insulin, triglycerides; format: in vivo, DIO male C57BL/6 mice
Method: FIGS. 4A-4F show in vivo efficacy in DIO mice. To evaluate effects of the compounds on the body weight, blood glucose, plasma insulin and plasma triglyceride in vivo, 17-week old DIO mice (C57BL/6 mice on high fat diet for 13 weeks) were dosed everyday subcutaneously with different concentrations of compounds for 21 days. […] Data are expressed as mean values and standard error (SEM). n=5 for each treatment group.
17 week old DIO male C57BL/6 mice (˜45 g) were injected everyday subcutaneously with designated proteins (i.e., Compound 63) for 21 days. Body weight was measured daily and five animals were used for each treatment group. Fasting glucose was also monitored on designated days. Body weight and glucose were monitored for each individual animal. Day 1 and Day 21 are first day and last day of molecule dosage. % BW loss=100*(BW on Day n-BW on Day 1)/(BW on Day 1). Terminal blood was collected and EDTA-2k plasma was prepared and frozen in −80° C. for biomarker measurement. Livers were also collected and frozen in liquid nitrogen and stored in −80° C.
Data are indicated as mean values and standard error (SEM). Statistical analysis was performed by One-way ANOVA.

[4] = Body weight in DIO mice: fusion protein conjugate against GLP1 alone and FGF21 alone; format: in vivo, DIO male C57BL/6 mice; details: both 10 nmol/kg and 30 nmol/kg, subcutaneously everyday for 21 days
Method: FIGS. 3A-3B show in vivo efficacy in DIO mice. To evaluate the body weight effect of the fusion proteins, 17 week old DIO mice (C57BL/6 mice on high fat diet for 13 weeks) were dosed everyday subcutaneously with different concentrations of compounds for 21 days. […] Data are expressed as mean values and standard error (SEM). n=5 for each treatment group.
17 week old DIO male C57BL/6 mice (˜45 g) were injected everyday subcutaneously with designated proteins (i.e., Compounds 63, 69 and 70) for 21 days. Body weight was measured daily and five animals were used for each treatment group. Day 1 and Day 21 are first day and last day of molecule dosage. % BW loss=100*(BW on Day n-BW on Day 1)/(BW on Day 1). Data are indicated as mean values and standard error (SEM).

B1: Compound 10: GLP-1/FGF21 fusion polypeptide SEQ ID NO: 10 conjugated with Moiety A at 222K (conjugate)
chain: HGEGTFTSDVSSYLEEQAAREFIAWLVRGGGGGGGSGGGGSGGGGSGGGGSHPIPDSSPLLQFGGQVRQRYLYTDDAQQTEAHLEIREDGTVGGAADQSPESLLQLRALRPGVIQILGVRTSRFLCQRPDGALYGSLHFDPEACSFRELLLEDGYNVYQSEAHGLPLHLPGQRSPHRDPAPRGPARFLPLPGLPPALPEPPGILAPQPPDVGSSDPLSLVGKSQGRSPSYES
modifications: Moiety A conjugated at K222
With B1 the “BW reduction compared to Semaglutide” value ([1]; 30 nmol/kg, 10-day dosing period (FIGS. 1A-1B)) was “much more enhanced and persistent BW reduction”, the “Body weight reduction at 30 nmol/kg (% reduction compared to vehicle)(Day11)” value [1] was 20.0% and the “AUC compared to non-acylated fusion protein (Compound 3)” value ([2]; 30 nmol/kg subcutaneous) was “larger AUC”. For the same molecule, the AUClast [2] was 0.4651 µM·h, the Cmax [2] was 50.2 nM and the “Terminal t1/2” value [2] was 1.9 h. The Tmax [2] was 4 h.

B2: Compound 9: GLP-1/FGF21 fusion polypeptide SEQ ID NO: 9 conjugated with Moiety A at 231K (conjugate)
chain: B1 chain with K222G, E231K
modifications: Moiety A conjugated at K231
In the case of B2, the “Body weight reduction at 30 nmol/kg (% reduction compared to vehicle)(Day11)” value [1] is reported as 27.2%, the “AUC compared to non-acylated fusion protein (Compound 3)” value ([2]; 30 nmol/kg subcutaneous) is reported as “larger AUC” and the AUClast [2] is reported as 0.7912 µM·h. For the same molecule, the Cmax [2] was 65.6 nM, the “Terminal t1/2” value [2] was 3.5 h and the Tmax [2] was 6 h.

B3: Compound 19: GLP-1/FGF21 fusion polypeptide SEQ ID NO: 19 conjugated with Moiety A at 51K and 222K (conjugate)
chain: B1 chain with S51K
modifications: Moiety A conjugated at K51 and K222
For B3, the “Body weight reduction at 30 nmol/kg (% reduction compared to vehicle)(Day11)” value [1] was 27.0%, the “AUC compared to non-acylated fusion protein (Compound 3)” value ([2]; 30 nmol/kg subcutaneous) was “larger AUC” and the “Half-lives of double acylated compared to monoacylated Compounds 9 and 10” value ([2]; 30 nmol/kg subcutaneous) was “significantly prolonged half-lives”. For the same molecule, the “PK properties compared to Semaglutide” value ([2]; 30 nmol/kg subcutaneous) was “better PK properties”, the AUClast [2] was 1.018 µM·h and the Cmax [2] was 59.9 nM. The “Terminal t1/2” value [2] was 10.8 h and the Tmax [2] was 4 h.

B4: Compound 63: GLP-1/FGF21 fusion polypeptide SEQ ID NO: 160 conjugated with Moiety B at 51C and 222C (conjugate)
chain: B1 chain with R20K, R28K, S51C, R107K, R110K, R120K, R173K, K222C
modifications: Moiety B conjugated at C51 and C222
For B4, the “Body weight, glycemic control and lipid profile compared to 30 nmol/kg Semaglutide” value ([3]; 30 nmol/kg subcutaneously everyday for 21 days) was “better body weight and glycemic control and lipid profile”, the “Dose dependence of efficacy” value ([3]; comparing 10 nmol/kg and 30 nmol/kg) was “Dose dependent efficacy” and the “Body weight reduction at 30 nmol/kg (% reduction compared to vehicle)(Day11)” value [1] was 24.5%. The “Body weight control compared to GLP1 alone (Compound 70) and FGF21 alone (Compound 69)” value [4] was “better body weight control”, the “AUC compared to non-acylated fusion protein (Compound 3)” value ([2]; 30 nmol/kg subcutaneous) was “larger AUC” and the AUClast [2] was 1.2948 µM·h. The Cmax [2] was 88.8 nM, the “Terminal t1/2” value [2] was 16.7 h and the Tmax [2] was 6.7 h.
